Positions count from the first letter of the chain named. Numbers in names are those of the source.
T1: cynomolgus monkey FcγRIIa1 extracellular domain, His-tagged (cynomolgus monkey)
T1 construct: also called cyno FcgRIIa1; cynoFcγRIIa1; not shown: His-tag added to the C-terminus
T1 chain: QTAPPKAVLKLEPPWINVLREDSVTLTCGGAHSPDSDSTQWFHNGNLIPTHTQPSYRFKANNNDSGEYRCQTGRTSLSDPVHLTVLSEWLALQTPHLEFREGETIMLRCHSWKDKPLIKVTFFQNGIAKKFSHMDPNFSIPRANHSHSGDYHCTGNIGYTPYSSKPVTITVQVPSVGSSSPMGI

T2: human FcγRIIaR extracellular domain, His-tagged (human, UniProt P12318 34-217)
T2 construct: also called human FcgRIIaR; FcγRIIa (type R); not shown: His-tag added to the C-terminus
T2 chain: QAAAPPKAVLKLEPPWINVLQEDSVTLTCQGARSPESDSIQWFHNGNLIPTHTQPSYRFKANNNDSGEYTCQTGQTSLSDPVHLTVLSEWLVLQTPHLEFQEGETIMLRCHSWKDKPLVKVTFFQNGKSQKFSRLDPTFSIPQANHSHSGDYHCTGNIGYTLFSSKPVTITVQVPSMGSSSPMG

T3: cynomolgus monkey FcγRIIa2 extracellular domain, C-terminal His-tag (cynomolgus monkey)
T3 construct: also called cyno FcγRIIa2; cynoFcgRIIa2; not shown: His-tag added to C-terminus
T3 chain: T1 chain with P95T, T121A, I127K, A128S, K130N, D135N, R142Q

T4: cynomolgus monkey FcγRIIa3 extracellular domain, C-terminal His-tag (cynomolgus monkey)
T4 construct: also called cyno FcγRIIa3; cynoFcgRIIa3; not shown: His-tag added to C-terminus
T4 chain: T1 chain with P95T, T121A, A128S, H133P, D135N

T5: human FcγRIIaH extracellular domain, C-terminal His-tag (human, UniProt P12318 34-217)
T5 construct: also called human FcγRIIa (type H); FcgRIIaH; not shown: His-tag added to C-terminus
T5 sequence: T2 chain with R134H

T6: human FcγRIIaR extracellular domain, C-terminal His-tag (human, UniProt P12318 34-217)
T6 construct: also called human FcγRIIa (type R); FcgRIIaR; not shown: His-tag added to C-terminus
T6 chain: T2 chain

B1: MS1032LO06-SG1 (M103205H795-SG1/M103202L889-SK1) (antibody, human IgG1, kappa)
heavy: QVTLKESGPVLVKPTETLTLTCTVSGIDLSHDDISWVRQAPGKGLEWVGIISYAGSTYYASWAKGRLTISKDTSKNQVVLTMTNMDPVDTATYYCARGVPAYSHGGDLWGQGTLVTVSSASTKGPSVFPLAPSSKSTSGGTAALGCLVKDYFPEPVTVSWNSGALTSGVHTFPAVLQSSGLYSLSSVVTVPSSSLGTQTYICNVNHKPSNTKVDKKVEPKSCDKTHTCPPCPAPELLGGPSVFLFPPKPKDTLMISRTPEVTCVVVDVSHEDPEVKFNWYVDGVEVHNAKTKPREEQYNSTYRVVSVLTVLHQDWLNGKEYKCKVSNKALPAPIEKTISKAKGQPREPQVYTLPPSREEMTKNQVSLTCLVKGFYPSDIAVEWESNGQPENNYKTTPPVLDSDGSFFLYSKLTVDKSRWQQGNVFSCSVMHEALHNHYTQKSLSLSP
light: DIVMTQSPATLSLSPGERATLSCTSSQSVYHANWLSWFQQKPGQPPKLLIYWASTLAYGVPSRFSGSGSGTDFTLTISSLQPEDAATYYCAGGYGGGRYAFGQGTKVEIKRTVAAPSVFIFPPSDEQLKSGTASVVCLLNNFYPREAKVQWKVDNALQSGNSQESVTEQDSKDSTYSLSSTLTLSKADYEKHKVYACEVTHQGLSSPVTKSFNRGEC
notes: Anti-latent myostatin antibody; Parent of the Fc variants; copies: 2 + 2
B2: M103205H795-MY201/M103202L889-SK1 (antibody, human IgG1, kappa)
heavy: QVTLKESGPVLVKPTETLTLTCTVSGIDLSHDDISWVRQAPGKGLEWVGIISYAGSTYYASWAKGRLTISKDTSKNQVVLTMTNMDPVDTATYYCARGVPAYSHGGDLWGQGTLVTVSSASTKGPSVFPLAPSSKSTSGGTAALGCLVKDYFPEPVTVSWNSGALTSGVHTFPAVLQSSGLYSLSSVVTVPSSSLGTQTYICNVNHKPSNTKVDKKVEPKSCDKTHTCPPCPAPELLNGPSVFLFPPKPKDTLMISRTPEVTCVVVDVSDEDPEVKFNWYVDGVEVHNAKTKPREEQYNSTYRVVSVLTVLHQDWLNGKEYKCKVSNKALPKPIEKTISKAKGQPREPQVYTLPPSREEMTKNQVSLTCLVKGFYPSDIAVEWESNGQPENNYKTTPPVLDSDGSFFLYSKLTVDKSRWQQGNVFSCSVMHEALHNHYTQKSLSLSP
light: B1 light
notes: Fc variant G236N/H268D/A330K (EU numbering) of SG1; also called MS1032LO06-MY201; copies: 2 + 2
B3: M103205H795-MY260/M103202L889-SK1 (antibody, human IgG1, kappa)
heavy: B2 heavy with N238M
light: B1 light
notes: copies: 2 + 2
B4: M103205H795-MY261/M103202L889-SK1 (antibody, human IgG1, kappa)
heavy: B2 heavy with N238H
light: B1 light
notes: copies: 2 + 2
B5: M103205H795-MY262/M103202L889-SK1 (antibody, human IgG1, kappa)
heavy: B2 heavy with N238V
light: B1 light
notes: copies: 2 + 2
B6: M103205H795-MY263/M103202L889-SK1 (antibody, human IgG1, kappa)
heavy: B2 heavy with N238Q
light: B1 light
notes: copies: 2 + 2
B7: MS_M103205H795-SG1/M103202L889-SK1 (antibody, human IgG1, kappa)
heavy: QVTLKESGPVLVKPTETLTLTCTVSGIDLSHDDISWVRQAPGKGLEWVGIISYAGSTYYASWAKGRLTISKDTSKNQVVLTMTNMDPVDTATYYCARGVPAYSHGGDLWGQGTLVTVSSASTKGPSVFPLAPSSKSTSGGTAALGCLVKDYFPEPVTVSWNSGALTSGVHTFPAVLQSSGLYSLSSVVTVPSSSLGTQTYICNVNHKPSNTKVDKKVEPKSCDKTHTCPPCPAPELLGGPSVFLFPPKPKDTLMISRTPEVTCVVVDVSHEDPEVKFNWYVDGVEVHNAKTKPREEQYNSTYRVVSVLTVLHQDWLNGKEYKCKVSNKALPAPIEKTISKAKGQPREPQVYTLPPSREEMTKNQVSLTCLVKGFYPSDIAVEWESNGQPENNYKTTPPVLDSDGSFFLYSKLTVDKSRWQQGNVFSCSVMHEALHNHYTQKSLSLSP
light: B1 light
notes: Parent antibody with SG1 human heavy chain constant region; also called MS1032LO06-SG1
B8: M103205H795-MY101 / M103202L889-SK1 (antibody, human IgG1, kappa)
heavy: B2 heavy with D270E, P398M
light: B1 light
notes: CH with G236N/H268E/A330K/P396M against SG1 (EU numbering); also called MS1032LO06-MY101
B9: M103205H795-MY201 / M103202L889-SK1 (antibody, human IgG1, kappa)
heavy: B2 heavy
light: B1 light
notes: CH with G236N/H268D/A330K against SG1 (EU numbering); also called MS1032LO06-MY201
B10: M103205H795-MY205 / M103202L889-SK1 (antibody, human IgG1, kappa)
heavy: B2 heavy with Q297L
light: B1 light
notes: CH with G236N/H268D/Q295L/A330K against SG1 (EU numbering); also called MS1032LO06-MY205
B11: M103205H795-MY335 / M103202L889-SK1 (antibody, human IgG1, kappa)
heavy: B2 heavy with N238T, Q313R, D415K
light: B1 light
notes: CH with G236T/H268D/Q311R/A330K/D413K against SG1 (EU numbering); also called MS1032LO06-MY335
B12: M103205H795-MY344 / M103202L889-SK1 (antibody, human IgG1, kappa)
heavy: B2 heavy with Q297L, Q313R, D415K
light: B1 light
notes: CH with G236N/H268D/Q295L/Q311R/A330K/D413K against SG1 (EU numbering); also called MS1032LO06-MY344
B13: M103205H795-MY351 / M103202L889-SK1 (antibody, human IgG1, kappa)
heavy: B2 heavy with Q313R, D415K
light: B1 light
notes: CH with G236N/H268D/Q311R/A330K/D413K against SG1 (EU numbering); also called MS1032LO06-MY351
B14: M103205H795-PK2 / M103202L889-SK1 (antibody, human IgG1, kappa)
heavy: B2 heavy with D270E, P398M, S402R, D415K
light: B1 light
notes: CH with G236N/H268E/A330K/P396M/S400R/D413K against SG1 (EU numbering); also called MS1032LO06-PK2; MS103205H795-PK2

How the values were obtained:
[1] = biological target: T1, cynomolgus monkey FcγRIIa1 …; experiment: SPR (BIACORE), antibody captured, FcγR as analyte, 25°C
Description: (§1) The kinetic analysis of interactions between these antibodies and FcγR was carried out using BIACORE® T200 or BIACORE® 4000 (GE Healthcare). HBS-EP+ (GE Healthcare) was used as the running buffer, and the measurement temperature was set to 25° C. A chip produced by immobilizing Protein A. Protein A/G or mouse anti-human IgG kappa light chain (BD Biosciences) onto a Series S Sensor Chip CM4 or CM5 (GE Healthcare) by the amine-coupling method was used. […] After the measurement, the antibody captured on the chip was washed off by allowing reaction with 10 mM glycine-HCl, pH1.5 and 25 mM NaOH so that the chip was regenerated and used repeatedly. The sensorgrams obtained as measurement results were analyzed by the 1:1 Langmuir binding model using the BIACORE® Evaluation Software to calculate the binding rate constant ka (L/mol/s) and dissociation rate constant kd (l/s), and the dissociation constant KD (mol/L) was calculated from these values. […] Regarding such interactions, KD values were calculated using the following 1:1 binding model described in BIACORE® T100 Software Handbook BR1006-48 Edition AE.
(§2) The behavior of interacting molecules according to the 1:1 binding model on BIACORE® can be described by Equation 1: Req=C·R max/(KD+C)+RI, wherein, Req is a plot of steady-state binding levels to analyte concentration. C is concentration, RI is bulk refractive index contribution in the sample, and Rmax is analyte binding capacity of the surface. When this equation is rearranged, KD can be expressed as Equation 2: KD=C·Rmax/(Req−RI)−C. KD can be calculated by substituting the values of Rmax, RI, and C into Equation 1 or Equation 2. From the current measurement conditions, RI=0, C=2 μmol/L can be used.

[2] = biological target: T2, human FcγRIIaR extracellular domain, …; experiment: as above
Description: as §1, §2

[3] = biological target: T7, human FcγRIIIaV extracellular domain, His-tagged (human, UniProt P08637 17-208); experiment: as above
T7 construct: also called human FcgRIIIaV; not shown: His-tag added to the C-terminus
Description: as §1, §2

[4] = biological target: T3, cynomolgus monkey FcγRIIa2 …; experiment: SPR (BIACORE); KD of SG1 / KD of variant;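 also: relative to parent M103205H795-SG1 carrying the SG1 human heavy chain constant region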
[5] = biological target: T4, cynomolgus monkey FcγRIIa3 …; experiment: SPR (BIACORE); KD of SG1 / KD of variant;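 also: relative to parent M103205H795-SG1 carrying the SG1 human heavy chain constant region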
[6] = biological target: T8, cynomolgus monkey FcγRIIIaS extracellular domain, C-terminal His-tag (cynomolgus monkey, UniProt A3RFZ7 21-206 (rhesus entry)); experiment: SPR (BIACORE); KD of SG1 / KD of variant;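 also: relative to parent M103205H795-SG1 carrying the SG1 human heavy chain constant region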
T8 construct: also called cyno FcγRIIIaS; cynoFcγRIIIaS; not shown: His-tag added to C-terminus

[7] = biological target: T5, human FcγRIIaH extracellular domain, …; experiment: SPR (BIACORE); KD of SG1 / KD of variant;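 also: relative to parent M103205H795-SG1 carrying the SG1 human heavy chain constant region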
[8] = biological target: T6, human FcγRIIaR extracellular domain, …; experiment: SPR (BIACORE); KD of SG1 / KD of variant
[9] = biological target: T9, human FcγRIIIaV extracellular domain, C-terminal His-tag (human, UniProt P08637 17-208); experiment: SPR (BIACORE); KD of SG1 / KD of variant
T9 construct: also called FcgRIIIaV; not shown: His-tag added to C-terminus
T9 sequence (P08637 17-208 F176V): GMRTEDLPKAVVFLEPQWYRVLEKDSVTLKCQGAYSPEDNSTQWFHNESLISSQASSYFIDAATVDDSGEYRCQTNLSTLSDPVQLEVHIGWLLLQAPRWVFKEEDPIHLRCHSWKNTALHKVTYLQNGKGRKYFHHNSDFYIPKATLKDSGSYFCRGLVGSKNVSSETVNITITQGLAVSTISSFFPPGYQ

T7 sequence (P08637 17-208 F176V): as above
T8 sequence (A3RFZ7 21-206): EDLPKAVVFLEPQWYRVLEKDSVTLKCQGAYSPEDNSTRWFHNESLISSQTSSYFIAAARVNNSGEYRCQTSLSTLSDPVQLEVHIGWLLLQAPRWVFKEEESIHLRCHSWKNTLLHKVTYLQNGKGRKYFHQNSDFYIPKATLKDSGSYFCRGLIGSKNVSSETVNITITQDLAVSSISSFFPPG

Row | Binder | Kd [1] [nM] | Kd [2] [nM] | Kd [3] [nM] | KD fold (SG1 = 1) [4] [fold] | KD fold (SG1 = 1) [5] [fold] | KD fold (SG1 = 1) [6] [fold] | KD fold (SG1 = 1) [7] [fold] | KD fold (SG1 = 1) [8] [fold] | KD fold (SG1 = 1) [9] [fold]
1 | B1 | 3200 | 1100 | 810 |  |  |  |  |  | 
2 | B2 | 1400 | 1900 | 24000 |  |  |  |  |  | 
3 | B3 | 4500 | 1800 | 3000 |  |  |  |  |  | 
4 | B4 | 3700 | 1100 | 11000 |  |  |  |  |  | 
5 | B5 | 1900 | 710 | 5000 |  |  |  |  |  | 
6 | B6 | 3200 | 710 | 2300 |  |  |  |  |  | 
7 | B7 |  |  |  | 1 | 1 | 1 | 1 | 1 | 1
8 | B8 |  |  |  | 4.3 | 4.7 | 0.11 | 1.4 | 1.3 | 0.07
9 | B9 |  |  |  | 3.6 | 4.4 | 0.06 | 0.8 | 0.6 | 0.03
10 | B10 |  |  |  | 4.6 | 5.7 | 0.06 | 1.5 | 0.8 | 0.06
11 | B11 |  |  |  | 3 | 6.3 | 0.24 | 2.4 | 3.8 | 0.16
12 | B12 |  |  |  | 4.6 | 7.7 | 0.07 | 1 | 0.9 | 0.04
13 | B13 |  |  |  | 6.7 | 8.9 | 0.07 | 0.7 | 0.7 | 0.06
14 | B14 |  |  |  | 3.9 | 4.5 | 0.09 | 1.2 | 1 | 0.06

From US20200317768A1 (published 2020)
